Results: the MegaScale stability set (Tsuboyama et al. 2023)

B1: r11_951_TrROS_Hall (parent)
chain: KKKYVIKVYFEDTGKEVEIEAESKEEALEAAKRLAEELGLKIKKVEIYP
B2: r4_43_TrROS_Hall (parent)
chain: DLVTIKVPLENLEEIKKAAEKAGFKIVSISYDKENKEVTIVIEKKK

Variants of: B1
Assay: folding stability dG (cDNA display proteolysis); higher = more stable
Settings: PBS, room temperature

Folding stability dG [kcal/mol] of substitutions, site by site:
K3: A 4.46
E46: I 4.47
E29: G 4.29; I 4.48; N 4.53
K2: G 4.29; P 3.73
I47: Y 4.47; P 4.04
E18: L 4.46
K1: V 4.51; T 4.5; Q 4.6
E22: K 4.05
V8: A 3.59
A35: N 3.14
Y48: M 4.4
R33: D 4.09
K41: N 4.28
T13: D 4.11
I42: D 2.38
K43: A 4.4
V17: P 3.58
K32: Q 4.38; H 4.55
Y4: K 2.9; I 4.29
A21: F 4.23
L28: P 3.39
D12: M 4.55
A27: G 4.68
G39: T 4; M 4.38
K44: R 4.4; Q 4.34
K7: Y 4.13; D 2.75; A 3.95
P49: L 4.62
L40: Q 4.07; E 3.99; R 4.27; C 3.95

Variants of: B2
Assay: as above
Settings: PBS, room temperature

Folding stability dG [kcal/mol]: each site, then its substitutions
Y31: H 3.41; Q 3.23; W 3.55; T 3.15; K 3.34; P 2.97; S 2.83; L 3.12; I 3.27; N 2.95; R 3.39; M 3.19; V 3.47
D32: M 3.48; V 3.33; T 3.81; L 3.21; W 3.62; N 4.06; R 2.93; Q 3.56; C 3.85; G 3.82; Y 3.65; H 3.67; I 3.39; A 3.54; E 3.62; P 2.77; S 4.21; K 3.04; F 3.67
K45: V 4.13; N 3.84; A 3.92; T 3.99; H 3.86; P 3.64; E 3.5; M 3.93; L 3.95; G 3.87; C 3.87; D 3.94; Y 4.47; I 3.87; S 3.72; W 4.49; F 4.41; R 3.94; Q 3.73
K44: L 3.96; D 3.54; F 4.48; N 3.53; S 3.49; M 3.96; Q 3.52; P 3.55; V 3.92; C 3.76; E 3.58; R 3.83; G 3.73; Y 4.68; W 4.25; H 3.73; A 3.79; T 4.11; I 3.93
K46: N 3.49; M 3.55; Q 3.86; I 3.61; C 3.83; S 3.72; T 3.82; W 4.4; R 3.68; Y 4.33; D 3.55; E 3.84; G 3.38; V 3.93; H 4.17; A 3.52; L 3.65; F 4.31; P 3.71
I42: H 2.83; F 4.17; L 3.79; S 2.75; N 0.933; R 2.38; E 1.39; Q 2.84; A 3.53; M 3.85; D 0.038; G 2.97; W 4.19; Y 4.47; T 3.03; K 2.34; P -0.342; C 3.24; V 3.46
K36: T 3.48; E 3.22; N 3.51; L 3.71; I 3.54; C 3.19; R 3.88; F 3.48; H 3.4; Y 3.61; S 3.46; G 3.64; W 3.66; V 3.32; Q 3.48; D 3.28; A 3.57; P 3.39; M 3.22
E37: I 3.85; W 3.92; G 3.72; N 3.62; P 2.62; L 3.62; H 3.86; V 4.14; Q 3.59; R 3.53; F 3.93; T 3.88; M 3.64; Y 3.9; C 3.8; K 3.45; A 3.75; D 3.49; S 3.81
N35: V 3.17; E 3.47; D 3.73; T 3.4; M 3.93; R 3.98; G 3.61; Q 3.54; W 3.75; A 3.24; H 3.54; K 3.17; I 3.52; L 3.47; Y 3.72; F 3.5; P 3.2; S 3.55
E43: L 4.39; H 3.88; I 3.54; M 4.04; K 3.36; G 3.26; T 3.92; W 4.7; C 4.02; S 3.51; A 3.71; R 3.76; F 4.59; Q 3.64; V 3.63; D 3.9; P 2.34; N 3.78; Y 4.32
T39: A 3.4; H 3.47; R 3.57; G 2.85; E 3.22; L 3.36; D 3.21; W 4.01; I 3.66; Q 3.36; P -0.044; Y 3.83; M 3.52; K 3.42; N 3.14; V 3.56; C 3.2; F 3.69; S 3.54
E34: V 3.72; A 3.48; M 3.74; L 4.04; C 3.63; K 3.83; Q 3.89; D 3.75; T 3.77; G 3.8; I 3.88; P 3.68; R 3.84; N 3.77; Y 3.81; W 3.96; F 3.67; H 3.92; S 3.86
K33: V 3.73; N 3.74; P 2.94; G 3.28; C 3.44; L 3.8; Q 3.83; S 3.5; I 3.85; T 3.41; R 3.93; E 3.43; M 3.72; F 3.61; W 3.76; D 3.11; A 3.49; Y 3.42; H 3.73
V41: H 3.26; A 3.49; T 3.42; D 2.77; C 3.33; R 3.47; G 3.4; L 3.91; F 3.76; M 3.48; I 3.64; K 3.47; E 3.48; Y 3.71; Q 3.5; N 3.34; W 4.13; S 3.51
V38: T 3.23; D 0.46; H 2.85; P 1.79; S 3.12; E 0.699; M 3.43; I 3.66; F 3.57; W 4.33; N 2.11; Y 4.2; Q 1.74; K 1.02; A 3.79; G 3.18; R 1.31; L 3.71; C 3.57
I40: M 3.77; W 1.82; N -0.494; G 0.285; V 3.81; T 1.73; C 2.81; Y 2.75; H -0.04; A 2.62; S 0.271; L 3.98; Q 0.343; F 3.93
